Laboratory results: paper PMC6433865, “The cochaperone CHIP marks Hsp70- and Hsp90-bound substrates for degradation through a very flexible mechanism” (Scientific Reports, 2019)

Key:
Hsp90 = target: T1, Hsp90 (human, UniProt P07900 1-732); test: negative-stain electron microscopy, 3D reconstruction; complexes stabilised and isolated by GraFix (10-30% glycerol gradient, 0.15% glutaraldehyde), stained with 2% uranyl acetate, JEOL JEM1010 at 80 kV; atomic structures docked into 19-26 Å volumes; conditions: both partners purified
T1 construct: Homodimer; also called hHsp90; source: E. coli, induced at 30 °C (4 h), purified (Ni-NTA, Superdex 200)

Hsp70 = target: T2, Hsp70 (human (by the printed Entrez Gene code), UniProt P0DMV8 1-641); test: cryo-EM structure; ternary complexes after GraFix, vitrified; Titan Krios 300 kV (Hsp70:p53-TMGST:CHIP, 15 Å) or Talos Arctica 200 kV (Hsp90:p53-TMGST:CHIP, 13 Å); atomic structures docked; conditions: both partners purified
T2 construct: Hsp70, Entrez Gene code 3303, cloned in pQE-30; Removal of the His tag is told only for CHIP, UbcH5a, Bag1s and p53DBD, not for Hsp70; source: E. coli, expressed at 16 °C overnight, purified (Ni-NTA, Superdex 200)
T2 sequence (P0DMV8 whole entry): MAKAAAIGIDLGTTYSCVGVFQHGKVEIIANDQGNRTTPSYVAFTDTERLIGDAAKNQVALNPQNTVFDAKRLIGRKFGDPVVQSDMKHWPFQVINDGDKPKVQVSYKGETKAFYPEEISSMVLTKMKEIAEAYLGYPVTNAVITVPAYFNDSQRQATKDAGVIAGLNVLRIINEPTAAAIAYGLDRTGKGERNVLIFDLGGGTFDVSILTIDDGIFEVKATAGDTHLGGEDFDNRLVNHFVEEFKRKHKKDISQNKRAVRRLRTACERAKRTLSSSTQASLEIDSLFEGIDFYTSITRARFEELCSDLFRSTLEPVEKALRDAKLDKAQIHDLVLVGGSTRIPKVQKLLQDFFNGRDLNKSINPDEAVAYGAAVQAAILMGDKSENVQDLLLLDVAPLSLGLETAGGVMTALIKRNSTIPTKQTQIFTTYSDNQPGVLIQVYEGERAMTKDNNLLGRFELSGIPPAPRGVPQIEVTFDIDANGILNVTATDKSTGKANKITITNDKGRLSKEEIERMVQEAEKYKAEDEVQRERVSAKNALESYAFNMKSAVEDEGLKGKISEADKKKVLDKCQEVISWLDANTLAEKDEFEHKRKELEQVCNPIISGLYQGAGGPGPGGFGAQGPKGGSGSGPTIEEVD

binding result (Hsp90): binds
binding result (Hsp70): binds
B1: C terminus of Hsc70-interacting protein (CHIP) (enzyme, human, UniProt Q9UNE7 1-303, looked up)
chain: MKGKEEKEGGARLGAGGGSPEKSPSAQELKEQGNRLFVGRKYPEAAACYGRAITRNPLVAVYYTNRALCYLKMQQHEQALADCRRALELDGQSVKAHFFLGQCQLEMESYDEAIANLQRAYSLAKEQRLNFGDDIPSALRIAKKKRWNSIEERRIHQESELHSYLSRLIAAERERELEECQRNHEGDEDDSHVRAQQACIEAKHDKYMADMDELFSQVDEKRKKRDIPDYLCGKISFELMREPCITPSGITYDRKDIEEHLQRVGHFDPVTRSPLTQEQLIPNLAMKEVIDAFISENGWVEDY
notes: human CHIP (hCHIP), Entrez Gene code 10273, cloned in pPROEX HTa; Homodimer, seen as an asymmetric triangular dimer in all reconstructions; also called hCHIP; source: E. coli, induced at 30 °C (4 h), purified (Ni-NTA, TEV cleavage, second Ni-NTA, Superdex 200)
